Measured values: patent US20250109178A1 (XYPHOS BIOSCIENCES, published 2025)
Positions count from the first letter of the chain named. Numbers in names are those of the source.

Tests used:
Fc-NKG2D.Y152A [1] = molecular target: T1, Fc-NKG2D.Y152A (human); assay: ELISA and Octet
T1 construct: also called NKG2D.YA; Fc-NKG2D.YA

[2] = molecular target: T2, Fc-NKG2D.wt (natural human NKG2D ectodomain fused to the C-terminus of human IgG1 Fc) (human); assay: ELISA, rituximab MicAbody on Fc-NKG2D (legend of FIGS. 16A and 16B)
T2 construct: also called natural Fc-NKG2D; wild-type Fc-NKG2D
T2 sequence (chain, as listed by the source limits assumed): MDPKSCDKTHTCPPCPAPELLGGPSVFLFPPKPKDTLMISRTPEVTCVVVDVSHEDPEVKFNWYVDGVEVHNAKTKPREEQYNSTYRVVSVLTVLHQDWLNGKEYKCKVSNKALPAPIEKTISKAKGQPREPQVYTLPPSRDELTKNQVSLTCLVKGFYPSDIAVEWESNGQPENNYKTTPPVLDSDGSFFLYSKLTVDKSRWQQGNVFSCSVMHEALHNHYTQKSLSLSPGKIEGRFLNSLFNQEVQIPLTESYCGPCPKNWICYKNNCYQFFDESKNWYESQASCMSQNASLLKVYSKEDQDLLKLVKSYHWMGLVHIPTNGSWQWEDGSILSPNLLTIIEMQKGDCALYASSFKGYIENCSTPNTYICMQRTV

[3] = molecular target: T2, Fc-NKG2D.wt (natural human NKG2D …); assay: ELISA, Fc-NKG2D coated, MicAbody titrated from 300 nM (GraphPad Prism)
Description: (§1) The binding affinities of α1-α2 variants to the extracellular domains of natural (wild-type) NKG2D and non-natural eNKG2D proteins were analyzed using a plate-based ELISA method. […] The plates were washed three times in PBS/0.05% Tween-20 (PBS-T) at 20-22° C., and blocked with 0.5% bovine serum albumin in PBS (PBS-B) for 2 hours at 20-22° C.

Fc-NKG2D.Y152A [4] = molecular target: T1, Fc-NKG2D.Y152A; assay: ELISA, Fc-eNKG2D coated, MicAbody titrated from 300 nM
Description: as §1

[5] = molecular target: Fc-NKG2D.AF, eNKG2D5 (Y152A/Y199F) (human); assay: ELISA, Fc-NKG2D coated, rituximab MicAbody titrated (FIGS. 16A and 16B)
Sequence of Fc-NKG2D.AF, eNKG2D5 (Y152A/Y199F) (human) (chain, as listed by the source Y152A Y199F Y152A Y199F limits assumed): as the sequence (chain, as listed by the source limits assumed) above, with Y312A, Y359F counted along it

[6] = molecular target: T2, Fc-NKG2D.wt (natural human NKG2D …); assay: as above
Fc-NKG2D.Y152A [7] = molecular target: T1, Fc-NKG2D.Y152A; assay: as above
[8] = molecular target: T2, Fc-NKG2D.wt (natural human NKG2D …); assay: titration ELISA, Fc-NKG2D coated, rituximab MicAbody titrated

T1 sequence (chain, as listed by the source Y152A Y152A limits assumed): as the sequence (chain, as listed by the source limits assumed) above, with Y312A counted along it

B1: ULBP2.S3 α1-α2 domain, monomeric His-tagged format (ligand)
chain: EPHSLSYDITVIPKFRPGPRWCAVQGQVDEKTFLHYDCGNKTVTPVSPLGKKLNVTTAWKAQNPVLREVVDILTEQLWDIQLENYTPKEPLTLQARMSCEQKAEGHSSGSWQFSFDGQIFLLFDSEKRMWTTVHPGARKMKEKWENDKVVATKLYLWSMGDCIGWLEDFLMGMDSTLEPS
notes: also called ULBP2.S3 (monomeric His-tagged); not shown: His tag
- binding result (Fc-NKG2D.Y152A [1]): binds

B2: rituximab-ULBP2.R80W MicAbody (bispecific antibody, human IgG1, kappa, N297A)
heavy: QVQLQQPGAELVKPGASVKMSCKASGYTFTSYNMHWVKQTPGRGLEWIGAIYPGNGDTSYNQKFKGKATLTADKSSSTAYMQLSSLTSEDSAVYYCARSTYYGGDWYFNVWGAGTTVTVSAASTKGPSVFPLAPSSKSTSGGTAALGCLVKDYFPEPVTVSWNSGALTSGVHTFPAVLQSSGLYSLSSVVTVPSSSLGTQTYICNVNHKPSNTKVDKKVEPKSCDKTHTCPPCPAPELLGGPSVFLFPPKPKDTLMISRTPEVTCVVVAVSHEDPEVKFNWYVDGVEVHNAKTKPREEQYASTYRVVSVLTVLHQDWLNGKEYKCKVSNKALPAPIEKTISKAKGQPREPQVYTLPPSRDELTKNQVSLTCLVKGFYPSDIAVEWESNGQPENNYKTTPPVLDSDGSFFLYSKLTVDKSRWQQGNVFSCSVMHEALHNHYTQKSLSLSPGGGGSEPHSLSYDITVIPKFRPGPRWCAVQGQVDEKTFLHYDCGNKTVTPVSPLGKKLNVTTAWKAQNPVLREVVDILTEQLWDIQLENYTPKEPLTLQARMSCEQKAEGHSSGSWQFSFDGQIFLLFDSEKRMWTTVHPGARKMKEKWENDKVVAMSFHYFSMGDCIGWLEDFLMGMDSTLEPS
light: QIVLSQSPAILSASPGEKVTMTCRASSSVSYIHWFQQKPGSSPKPWIYATSNLASGVPVRFSGSGSGTSYSLTISRVEAEDAATYYCQQWTSNPPTFGGGTKLEIKTVAAPSVFIFPPSDEQLKSGTASVVCLLNNFYPREAKVQWKVDNALQSGNSQESVTEQDSKDSTYSLSSTLTLSKADYEKHKVYACEVTHQGLSSPVTKSFNRGEC
- binding result [2]: binds

B3: ULBP2.wt rituximab-MicAbody (bispecific antibody, human IgG1, kappa)
heavy: not shown
light: QIVLSQSPAILSASPGEKVTMTCRASSSVSYIHWFQQKPGSSPKPWIYATSNLASGVPVRFSGSGSGTSYSLTISRVEAEDAATYYCQQWTSNPPTFGGGTKLEIKRTVAAPSVFIFPPSDEQLKSGTASVVCLLNNFYPREAKVQWKVDNALQSGNSQESVTEQDSKDSTYSLSSTLTLSKADYEKHKVYACEVTHQGLSSPVTKSFNRGECAPTSSSGGGGSEPHSLSYDITVIPKFRPGPRWCAVQGQVDEKTFLHYDCGNKTVTPVSPLGKKLNVTTAWKAQNPVLREVVDILTEQLRDIQLENYTPKEPLTLQARMSCEQKAEGHSSGSWQFSFDGQIFLLFDSEKRMWTTVHPGARKMKEKWENDKVVAMSFHYFSMGDCIGWLEDFLMGMDSTLEPS
notes: Rituximab IgG1 with wild-type ULBP2 α1-α2 domain fused to the light chain; bivalent for the α1-α2 domain; also called ULBP2 MicAbody; ULBP2 wild-type MicAbody
- Kd [3]: 1.4 nM
- binding result (Fc-NKG2D.Y152A [4]): binds

B4: rituximab-ULBP2.S3 MicAbody (bispecific antibody, human IgG1, kappa)
heavy: not shown
light: B3 light with R302W, M376T, S377K, F378L, H379Y, Y380L, F381W
notes: also called ULBP2.S3 as a MicAbody
- binding result [5]: no binding
- binding result [6]: no binding

B5: rituximab-ULBP2.R MicAbody (bispecific antibody, human IgG1, kappa)
heavy: not shown
light: B3 light with R302W, M376T, S377L, F378L, H379W, Y380G, F381W
notes: also called ULBP2.R rituximab-MicAbody; rituximab-MicAbody
- binding result (Fc-NKG2D.Y152A [7]): no binding
- binding result [6]: no binding

B6: rituximab-ULBP2.C MicAbody (bispecific antibody, human IgG1, kappa)
heavy: not shown
light: QIVLSQSPAILSASPGEKVTMTCRASSSVSYIHWFQQKPGSSPKPWIYATSNLASGVPVRFSGSGSGTSYSLTISRVEAEDAATYYCQQWTSNPPTFGGGTKLEIKTVAAPSVFIFPPSDEQLKSGTASVVCLLNNFYPREAKVQWKVDNALQSGNSQESVTEQDSKDSTYSLSSTLTLSKADYEKHKVYACEVTHQGLSSPVTKSFNRGECAPTSSSGGGGSEPHSLSYDITVIPKFRPGPRWCAVQGQVDEKTFLHYDCGNKTVTPVSPLGKKLNVTTAWKAQNPVLREVVDILTEQLWDIQLENYTPKEPLTLQARMSCEQKAEGHSSGSWQFSFDGQIFLLFDSEKRMWTTVHPGARKMKEKWENDKVVATILWQTSMGDCIGWLEDFLMGMDSTLEPS
- binding result [8]: no binding
